Entries after “also recorded” stand apart in the source; their conditions may differ. Peptide text beside a SMILES is read from it.
Columns and labels:
[1] = test system: sMICA shedding by Hela and A375 cells; assay: Shedding of sMICA by tumor cell lines, ELISA for sMICA; format: cell-based; conditions: pharmacological inhibitors; U266, Hela, A375, HCT116 and Lovo cells; concentration-dependent; ELISA
NKG2D+ CD4+ T cells = assay: NKG2D expression and expansion of activated CD4 T cells; format: cell-based; conditions: anti-CD3 activated CD4 T cell cultures
Protocol: For the analysis of NKG2D expression in activated CD4 T cells, freshly isolated pure CD4^+ T cells were plated at 0.3×10^6/2 ml AIM-V medium (Gibco)/well in 24 well plates for various periods of time with or without the presence of mitogenic stimuli and/or the presence of NKG2D ligands. Mitogenic stimuli included either cross-linked anti-CD3 (plates were first coated with AffiniPure F(ab′)2 fragment goat anti-mouse IgG1, Fcγ fragment specific (Jackson ImmunoResearch Laboratories, Inc.) at 10 μg/ml in PBS over night at 4° C. followed by a 4 hr room temperature incubation with anti-CD3 (OKT3, Orthoclone, Ortho Biotech Products, L.P.) at 50 ng/ml (if not indicated otherwise), PHA (5 μg/ml), or PMA/Ionomycin. Ligand additions consisted of either irradiated CLR-MICA and control transfectants at a T cell:transfectant ratio of 5:1, or recombinant soluble MICA at 25 ng/ml if not indicated otherwise. Cells were harvested at various time points after the initiation of culture and tested for NKG2D, CD4 and CD3 coexpression using directly conjugated mAbs for standard three color flow cytometry.
(§1) For analysis of CD4^+ T cell proliferation in conjunction with NKG2D expression, 1×10^7 freshly isolated pure CD4^+ T cells/ml PBS were labeled with an equal volume of 2 μM CFSE (Molecular Probes) for 8 min at room temperature. CFSE was quenched with an equal volume of fetal calf serum for one min followed by three washes with AIM-V medium. CFSE labeled cells were then plated, stimulated and phenotypically analysed as described above. Additional ligands tested in this experimental setting included any of either C1R-MICB, ULBP-1, -2, -3, 4, or -5 transfectants, recombinant soluble MICB, or 5% soluble MIC containing serum from a MIC+ tumor patient and MIC− control serum. To test ligand specificity, ligand containing cultures were treated with either 10 μg/ml 6D4 (anti-MICA/B), 10 μg/ml 3F1 (anti-ULBP-1), or appropriately diluted isotype control immunoglobulins. In some experiments, ligand was replaced by solid-phase anti-NKG2D (1D11) at the concentrations ranging from 5-50 ng/ml. In some experiments, ligand/solid-phase mAb were added on day 1, 2 or 3 after the initiation of culture.

NKG2D- CD4+ T cells = assay: CD4 T cell proliferation (CFSE dilution, [3H]thymidine incorporation); format: cell-based; conditions: anti-CD3 activated CD4 T cell cultures
Protocol: as §1
To assess inhibition of CD4^+ T cell proliferation by standard [^3H]thymidine incorporation experiments, freshly isolated pure CD4^+ T cells were plated at 1×10^5 cells/well in a 96 well flat bottom plate containing titrated cross-linked anti-CD3 (see above) or isotype control Ig with or without titrated recombinant soluble MIC. After 72 hrs at 37° C., plates were pulsed with 3 μCi of [^3H]thymidine (Perkin Elmer) for 12 hrs. Plates were harvested and samples analysed by liquid scintillation using Uni-Filter GF/C plates and a TopCount Counter (both from Packard). Counts from triplicates were averaged.

[2] = target: the molecule itself; assay: size exclusion chromatography (self-association)
[3] = target: T1, recombinant soluble MICA (rsMICA), unglycosylated, produced in bacteria; ectodomain-only MICA
T1 chain: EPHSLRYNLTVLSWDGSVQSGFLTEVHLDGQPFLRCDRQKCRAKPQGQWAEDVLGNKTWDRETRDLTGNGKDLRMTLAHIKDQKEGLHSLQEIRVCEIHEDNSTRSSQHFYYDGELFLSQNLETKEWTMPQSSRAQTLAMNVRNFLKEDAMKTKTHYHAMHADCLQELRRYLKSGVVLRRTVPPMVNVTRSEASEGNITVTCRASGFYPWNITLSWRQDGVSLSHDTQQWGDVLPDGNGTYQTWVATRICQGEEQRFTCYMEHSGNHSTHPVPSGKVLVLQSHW

MICA [4] = target: T2, MICA (Homo sapiens, UniProt Q29983); assay: ERP5 activity assay, disulfide reduction (non-reducing SDS-PAGE); format: biochemical; conditions: ectodomain MICA substrate, room temperature, 1 h or 3 h, no reducing agent
T2 sequence (Q29983 24-299): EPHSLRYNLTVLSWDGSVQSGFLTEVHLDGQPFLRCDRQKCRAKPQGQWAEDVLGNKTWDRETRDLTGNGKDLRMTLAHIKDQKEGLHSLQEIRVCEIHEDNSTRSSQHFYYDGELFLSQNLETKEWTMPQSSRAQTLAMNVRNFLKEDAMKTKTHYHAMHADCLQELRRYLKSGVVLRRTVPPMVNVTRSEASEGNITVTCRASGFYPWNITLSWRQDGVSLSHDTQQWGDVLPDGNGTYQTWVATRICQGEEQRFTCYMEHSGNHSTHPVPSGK

MICA [5] = target: T3, MICA (Homo sapiens, UniProt Q29983); assay: as above; format: biochemical; conditions: isolated α3 domain (residues 187-274)
T3 sequence (Q29983 210-297): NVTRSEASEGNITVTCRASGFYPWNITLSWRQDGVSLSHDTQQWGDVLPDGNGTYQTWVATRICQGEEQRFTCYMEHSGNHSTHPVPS

[6] = target: T4, MICA tetramer (recombinant MICA*001, residues 1-276, produced in transfected 293T cells, conjugated with … (human, UniProt Q29983 24-299, highly glycosylated (293T cells); conjugated with PE-streptavidin); assay: flow cytometry, PE-streptavidin tetramers on NKL cells
T4 construct: Tags from the Invitrogen expression system are not described; also called MICA tetramers; MICA ligand tetramers
T4 sequence: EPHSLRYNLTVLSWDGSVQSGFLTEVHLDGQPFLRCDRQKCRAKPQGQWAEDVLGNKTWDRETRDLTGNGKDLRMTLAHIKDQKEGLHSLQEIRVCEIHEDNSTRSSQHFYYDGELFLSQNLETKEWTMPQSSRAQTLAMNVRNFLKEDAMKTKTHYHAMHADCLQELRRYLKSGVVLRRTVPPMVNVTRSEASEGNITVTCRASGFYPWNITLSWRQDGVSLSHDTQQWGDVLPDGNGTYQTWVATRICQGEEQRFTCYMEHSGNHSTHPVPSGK

CC[C@H](C)[C@H](N)C1=N[C@H](C(=O)N[C@@H](CC(C)C)C(=O)N[C@H](CCC(=O)O)C(=O)N[C@H](C(=O)N[C@H]2CCCCNC(=O)[C@H](CC(N)=O)NC(=O)[C@@H](CC(=O)O)NC(=O)[C@H](Cc3cnc[nH]3)NC(=O)[C@@H](Cc3ccccc3)NC(=O)[C@H]([C@@H](C)CC)NC(=O)[C@@H](CCCN)NC2=O)[C@@H](C)CC)CS1 [bacitracin] (HELM PEPTIDE1{[CC[C@H](C)[C@H](N)C1=N[C@H](C(=O)[*:2])CS1].L.[dE].I.K.[NCCC[C@@H](N[*:1])C(=O)[*:2]].I.[dF].H.[dD].N}$PEPTIDE1,PEPTIDE1,5:R3-11:R2$$$V2.0)
shedding of sMICA [1]: markedly reduced; also recorded: Inhibition of sMICA shedding; also recorded: reduce shedding of sMICA

O=C(O)c1cc(SSc2ccc([N+](=O)[O-])c(C(=O)O)c2)ccc1[N+](=O)[O-] [DTNB, 5,5-dithiobis-(2-nitrobenzoic acid)]
shedding of sMICA [1]: markedly reduced; also recorded: Inhibition of sMICA shedding; also recorded: reduce shedding of sMICA

B1: soluble MIC: recombinant soluble MIC ligand of NKG2D (protein)
chain: EPHSLRYNLTVLSWDGSVQSGFLTEVHLDGQPFLRCDRQKCRAKPQGQWAEDVLGNKTWDRETRDLTGNGKDLRMTLAHIKDQKEGLHSLQEIRVCEIHEDNSTRSSQHFYYDGELFLSQNLETKEWTMPQSSRAQTLAMNVRNFLKEDAMKTKTHYHAMHADCLQELRRYLKSGVVLRRTVPPMVNVTRSEASEGNITVTCRASGFYPWNITLSWRQDGVSLSHDTQQWGDVLPDGNGTYQTWVATRICQGEEQRFTCYMEHSGNHSTHPVPSGK
expansion / proliferation of NKG2D+ CD4+ T cells (NKG2D+ CD4+ T cells): enhanced
proliferation of NKG2D- CD4+ T cells (NKG2D- CD4+ T cells): dramatically inhibited

B2: ERP5 fragment 135-421, bacterially produced, N-terminal hexahistidine (enzyme, UniProt Q15084 154-440, looked up)
chain: SDSSSKKDVIELTDDSFDKNVLDSEDVWMVEFYAPWCGHCKNLEPEWAAAASEVKEQTKGKVKLAAVDATVNQVLASRYGIRGFPTIKIFQKGESPVDYDGGRTRSDIVSRALDLFSDNAPPPELLEIINEDIAKRTCEEHQLCVVAVLPHILDTGAAGRNSYLEVLLKLADKYKKKMWGWLWTEAGAQSELETALGIGGFGYPAMAAINARKMKFALLKGSFSEQGINEFLRELSFGRGSTAPVGGGAFPTIVEREPWDGRDGELPVEDDIDLSDVELDDLGKDEL
notes: range 135-421; Numbers count on the mature protein; also called ERP5 135-421; not shown: N-terminal hexahistidine tract
binding result [2]: no binding
disulfide bond reduction of MICA (non-reducing SDS-PAGE) [3]: only the N-terminal domain displayed functional activity

B3: ERP5 fragment 1-118 (N-terminal thioredoxin-like domain), bacterially produced, N-terminal hexahistidine (enzyme, UniProt Q15084 20-137, looked up)
chain: LYSSSDDVIELTPSNFNREVIQSDSLWLVEFYAPWCGHCQRLTPEWKKAATALKDVVKVGAVDADKHHSLGGQYGVQGFPTIKIFGSNKNRPEDYQGGRTGEAIVDAALSALRQLVKD
notes: Numbers count on the mature protein; also called N-terminal ERP5 polypeptide fragment; not shown: N-terminal hexahistidine tract
binding result [2]: no binding
disulfide bond reduction of MICA (non-reducing SDS-PAGE) [3]: only the N-terminal domain displayed functional activity

B4: ERP5 fragment 1-118 C36S mutant (protein)
chain: LYSSSDDVIELTPSNFNREVIQSDSLWLVEFYAPWSGHCQRLTPEWKKAATALKDVVKVGAVDADKHHSLGGQYGVQGFPTIKIFGSNKNRPEDYQGGRTGEAIVDAALSALRQLVKD
disulfide bond reduction of MICA (non-reducing SDS-PAGE) [3]: C36S showed no activity on MICA substrate

B5: ERP5 fragment 1-118: N-terminal thioredoxin-like domain fragment of ERP5, residues 1-118 (protein)
chain: LYSSSDDVIELTPSNFNREVIQSDSLWLVEFYAPWCGHCQRLTPEWKKAATALKDVVKVGAVDADKHHSLGGQYGVQGFPTIKIFGSNKNRPEDYQGGRTGEAIVDAALSALRQLVKD
modifications: left off: small tags and cut ends
reduction of MICA disulfide bonds (MICA [4]): partially reduced

B6: C36S: C36S active site mutant of ERP5 fragment 1-118 (protein)
chain: LYSSSDDVIELTPSNFNREVIQSDSLWLVEFYAPWSGHCQRLTPEWKKAATALKDVVKVGAVDADKHHSLGGQYGVQGFPTIKIFGSNKNRPEDYQGGRTGEAIVDAALSALRQLVKD
modifications: left off: small tags and cut ends
reduction of MICA disulfide bonds (MICA [4]): no activity

B7: C39S: C39S active site mutant of ERP5 fragment 1-118 (protein)
chain: LYSSSDDVIELTPSNFNREVIQSDSLWLVEFYAPWCGHSQRLTPEWKKAATALKDVVKVGAVDADKHHSLGGQYGVQGFPTIKIFGSNKNRPEDYQGGRTGEAIVDAALSALRQLVKD
modifications: left off: small tags and cut ends
reduction of the MICA α3 domain disulfide bond (MICA [5]; listed as ERP5 1-118 C39S mutant polypeptide): reduces the α3 domain disulfide bond of MICA
reduction of the MICA α3 domain disulfide bond (MICA [5]; listed as ERP5 1-118 polypeptide fragment with the C39S mutation): unresolved mixed disulfide heterodimer
reduction of MICA disulfide bonds (MICA [4]): formed a trapped disulfide-linked intermediate
reduction of MICA disulfide bonds (MICA [4]; listed as C39S mutant of ERP5 fragment 1-118): disulfide-linked heterodimers

B8: soluble MICB: recombinant soluble MICB, NKG2D ligand (protein)
chain: EPHSLRYNLMVLSQDGSVQSGFLAEGHLDGQPFLRYDRQKRRAKPQGQWAEDVLGAETWDTETEDLTENGQDLRRTLTHIKDQKGGLHSLQEIRVCEIHEDSSTRGSRHFYYNGELFLSQNLETQESTVPQSSRAQTLAMNVTNFWKEDAMKTKTHYRAMQADCLQKLQRYLKSGVAIRRTVPPMVNVTCSEVSEGNITVTCRASSFYPRNITLTWRQDGVSLSHNTQQWGDVLPDGNGTYQTWVATRIRQGEEQRFTCYMEHSGNHGTHPVPSGK
proliferation of NKG2D- CD4+ T cells (NKG2D- CD4+ T cells): Growth inhibition

B9: NKG2D (on NKL NK cells and on CD4+ T cells) (receptor, human, UniProt P26718 1-216, looked up)
chain: MGWIRGRRSRHSWEMSEFHNYNLDLKKSDFSTRWQKQRCPVVKSKCRENASPFFFCCFIAVAMGIRFIIMVTIWSAVFLNSLFNQEVQIPLTESYCGPCPKNWICYKNNCYQFFDESKNWYESQASCMSQNASLLKVYSKEDQDLLKLVKSYHWMGLVHIPTNGSWQWEDGSILSPNLLTIIEMQKGDCALYASSFKGYIENCSTPNTYICMQRTV
notes: whole, on cells; also called NKG2D receptor
binding result [6]: binds

— US20070248607A1, “NEGATIVE IMMUNOMODULATION OF IMMUNE RESPONSES BY NKG2D-POSITIVE CD4+ CELLS” (priority 2005, published 2007)
